T1: SIP2 D1 (Plasmodium falciparum, UniProt C6KSN9 177-235)
T1 sequence: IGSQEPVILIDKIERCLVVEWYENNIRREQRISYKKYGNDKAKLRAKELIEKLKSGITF

T2: HDP1 homeodomain-like (Plasmodium falciparum, UniProt Q8IKH4 2990-3078)
T2 sequence: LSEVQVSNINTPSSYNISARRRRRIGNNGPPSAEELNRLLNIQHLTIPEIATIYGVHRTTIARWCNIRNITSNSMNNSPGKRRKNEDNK

B1: GTGCAC_site10095 (dsDNA)
DNA 1: CTATATATAACCCATGTGCACTTTTTATGTACAATA
DNA 2: TATTGTACATAAAAAGTGCACATGGGTTATATATAG
B2: GTGCAC_site10218 (dsDNA)
DNA 1: GATATATATACATGTGTGCACCATGCAACTTGTTTT
DNA 2: AAAACAAGTTGCATGGTGCACACATGTATATATATC
B3: GTGCAC_site9436 (dsDNA)
DNA 1: AACGAGCAAGACGGGGTGCACACAAACTAATATGCC
DNA 2: GGCATATTAGTTTGTGTGCACCCCGTCTTGCTCGTT
B4: GTGCAC_site9736 (dsDNA)
DNA 1: ATATTTTATGTGTTGGTGCACATCTTTATTTAAACT
DNA 2: AGTTTAAATAAAGATGTGCACCAACACATAAAATAT
B5: GTGCAC_site9474 (dsDNA)
DNA 1: GCCCCCAAATTATGTGTGCACTTTATATTCCTGAGA
DNA 2: TCTCAGGAATATAAAGTGCACACATAATTTGGGGGC
B6: GTGCAC_site10202 (dsDNA)
DNA 1: AAAATGTAGAAATGGGTGCACACACATATATAATAT
DNA 2: ATATTATATATGTGTGTGCACCCATTTCTACATTTT
B7: GTGCAC_site9569 (dsDNA)
DNA 1: TATTTGTATATATGTGTGCACGTATAATCCATTAAA
DNA 2: TTTAATGGATTATACGTGCACACATATATACAAATA
B8: GTGCAC_negctrl_site138 (dsDNA)
DNA 1: AAAAACAATCATTTTAAATAAAAATCTCTAATTTAA
DNA 2: TTAAATTAGAGATTTTTATTTAAAATGATTGTTTTT
B9: GTGCAC_site9829 (dsDNA)
DNA 1: GAACGAAATAAGTGTGTGCACATGTAACCACAAATC
DNA 2: GATTTGTGGTTACATGTGCACACACTTATTTCGTTC
B10: GTGCAC_site9591 (dsDNA)
DNA 1: ACATATTATATATGTGTGCACATATATATATATTTA
DNA 2: TAAATATATATATATGTGCACACATATATAATATGT
B11: GTGCAC_site9967 (dsDNA)
DNA 1: ACATCGATTTATATTCTGCACTGAAGAAACTACAAC
DNA 2: GTTGTAGTTTCTTCAGTGCAGAATATAAATCGATGT
B12: GTGCAC_site9679 (dsDNA)
DNA 1: TTTCTTTAATATATAGTGCATGTAAATTTTACAATA
DNA 2: TATTGTAAAATTTACATGCACTATATATTAAAGAAA
B13: GTGCAC_site9920 (dsDNA)
DNA 1: ATAATTATATGATGAGTGCACAATAAAAATATCGTT
DNA 2: AACGATATTTTTATTGTGCACTCATCATATAATTAT
B14: GTGCAC_site10491 (dsDNA)
DNA 1: TAGTGATATAATTATGTGCACTTAATACAGGTCGAT
DNA 2: ATCGACCTGTATTAAGTGCACATAATTATATCACTA
B15: GTGCAC_site10284 (dsDNA)
DNA 1: TTCTCCTAATAGTTAGTGCACTACATAACTAAGAAA
DNA 2: TTTCTTAGTTATGTAGTGCACTAACTATTAGGAGAA
B16: GTGCAC_site10685 (dsDNA)
DNA 1: TTATATTTCACAAATGTGCACAGATACATATATATA
DNA 2: TATATATATGTATCTGTGCACATTTGTGAAATATAA
B17: GTGCAC_site10780 (dsDNA)
DNA 1: TACAGTTCAATGAAGGTGCAATTAATATATAAAATA
DNA 2: TATTTTATATATTAATTGCACCTTCATTGAACTGTA
B18: GTGCAC_site10017 (dsDNA)
DNA 1: ATATATACTATAATAGTGCATTAAAAAAGTAAAAAT
DNA 2: ATTTTTACTTTTTTAATGCACTATTATAGTATATAT
B19: GTGCAC_site10292 (dsDNA)
DNA 1: ATAATATGTTATTAAGTGCATATTAATTATTATTAT
DNA 2: ATAATAATAATTAATATGCACTTAATAACATATTAT
B20: GTGCAC_site9798 (dsDNA)
DNA 1: ATCATATGTATGGTGGTGCATTATGCATGAATTTTA
DNA 2: TAAAATTCATGCATAATGCACCACCATACATATGAT
B21: GTGCAC_site9541 (dsDNA)
DNA 1: ATGAGTAACATATTTGTGCACATATGGTTATTTTTA
DNA 2: TAAAAATAACCATATGTGCACAAATATGTTACTCAT
B22: GTGCAC_site10741 (dsDNA)
DNA 1: AAACAAAACAACTAAGTGCATAAAAATAAAATAAAT
DNA 2: ATTTATTTTATTTTTATGCACTTAGTTGTTTTGTTT
B23: GTGCAC_site10033 (dsDNA)
DNA 1: TTATAAAATTACTTGGTGCATTAGAATATTTCAATA
DNA 2: TATTGAAATATTCTAATGCACCAAGTAATTTTATAA
B24: GTGCAC_site9772 (dsDNA)
DNA 1: TATATTATCAAAATGGTGCAATAATTTCTATATTAT
DNA 2: ATAATATAGAAATTATTGCACCATTTTGATAATATA
B25: GTGCAC_site9574 (dsDNA)
DNA 1: ATCATATTTATGTTGGTGCATTATACATAAAGTTTA
DNA 2: TAAACTTTATGTATAATGCACCAACATAAATATGAT
B26: GTGCAC_site9629 (dsDNA)
DNA 1: ATATCAAATAATTTAGTGCACTTTTTTTTTTCTTTT
DNA 2: AAAAGAAAAAAAAAAGTGCACTAAATTATTTGATAT
B27: GTGCAC_site9478 (dsDNA)
DNA 1: ATATTATATTGGATGTTGCACTTAACAAAAGGATAT
DNA 2: ATATCCTTTTGTTAAGTGCAACATCCAATATAATAT
B28: GTGCAC_site9796 (dsDNA)
DNA 1: ATATATATATATATAGTGCAAATAAAAAATAGACAA
DNA 2: TTGTCTATTTTTTATTTGCACTATATATATATATAT
B29: GTGCAC_site9965 (dsDNA)
DNA 1: AAGAACAAATATGAGGTGCAACACAATATATTATTA
DNA 2: TAATAATATATTGTGTTGCACCTCATATTTGTTCTT

What follows are binders tested against T1, SIP2 D1 (assay: gcPBM; about 25 ug protein; PBS, 1% milk, 0.2 mg/ml BSA, salmon testes DNA, 0.03% Triton X-100). Settings: tags: N-terminal GST (pGEX-4T-1), kept; label: surface-attached array probe.

Compared with B1, B2 is higher in binding signal: 10.2 ln median PBM intensity, better of two orientations for the first, 11.1 ln median PBM intensity, better of two orientations for the second.

Compared with B3, B4 is lower in binding signal: 11.8 ln median PBM intensity, better of two orientations for the first, 10.9 ln median PBM intensity, better of two orientations for the second.

First: B5
Second: B6
The binding signal of the first is lower: 11.2 ln median PBM intensity, better of two orientations for the first, 11.7 ln median PBM intensity, better of two orientations for the second.

For B7, the binding signal was 11.3 ln median PBM intensity, better of two orientations.

These binders were tested against T2, HDP1 homeodomain-like in the same assay as above. Settings: tags: N-terminal GST (pGEX-4T-1), kept; chain copies: 2; label: surface-attached array probe.

Compared with B8, B1 is higher in binding signal: 5.6 ln median PBM intensity, better of two orientations for the first, 10.1 ln median PBM intensity, better of two orientations for the second.

Compared with B9, B10 is higher in binding signal: 9.93 ln median PBM intensity, better of two orientations for the first, 9.98 ln median PBM intensity, better of two orientations for the second.

Going from B11 to B12, the binding signal rises from 7.69 ln median PBM intensity, better of two orientations to 8.12 ln median PBM intensity, better of two orientations.

Compared with B13, B2 is higher in binding signal: 9.38 ln median PBM intensity, better of two orientations for the first, 9.57 ln median PBM intensity, better of two orientations for the second.

B14 and B15 are the same in binding signal: 11.1 ln median PBM intensity, better of two orientations for the first, 11.1 ln median PBM intensity, better of two orientations for the second.

Compared with B16, B3 is lower in binding signal: 11.1 ln median PBM intensity, better of two orientations for the first, 9.89 ln median PBM intensity, better of two orientations for the second.

First: B17
Second: B18
The binding signal of the first is lower: 9.1 ln median PBM intensity, better of two orientations for the first, 9.53 ln median PBM intensity, better of two orientations for the second.

First: B19
Second: B20
The binding signal of the first is lower: 9.18 ln median PBM intensity, better of two orientations for the first, 10.4 ln median PBM intensity, better of two orientations for the second.

Compared with B21, B4 is lower in binding signal: 11.1 ln median PBM intensity, better of two orientations for the first, 9.88 ln median PBM intensity, better of two orientations for the second.

Compared with B22, B23 is higher in binding signal: 8.67 ln median PBM intensity, better of two orientations for the first, 11.1 ln median PBM intensity, better of two orientations for the second.

First: B24
Second: B25
The binding signal of the first is lower: 10 ln median PBM intensity, better of two orientations for the first, 10.4 ln median PBM intensity, better of two orientations for the second.

First: B5
Second: B6
The binding signal of the first is higher: 9.62 ln median PBM intensity, better of two orientations for the first, 9.58 ln median PBM intensity, better of two orientations for the second.

Going from B26 to B27, the binding signal falls from 10.8 ln median PBM intensity, better of two orientations to 8.41 ln median PBM intensity, better of two orientations.

Compared with B28, B7 is lower in binding signal: 10 ln median PBM intensity, better of two orientations for the first, 9.32 ln median PBM intensity, better of two orientations for the second.

With B29 the binding signal was 10.2 ln median PBM intensity, better of two orientations.

The binders below were run against AP2-I D3 (Plasmodium falciparum, UniProt Q8IJW6 910-1027) in the same assay as above. Settings: tags: N-terminal GST (pGEX-4T-1), kept; label: surface-attached array probe.

Going from B8 to B9, the binding signal rises from 6.74 ln median PBM intensity, better of two orientations to 9.08 ln median PBM intensity, better of two orientations.

First: B10
Second: B11
The binding signal of the first is lower: 9.12 ln median PBM intensity, better of two orientations for the first, 9.3 ln median PBM intensity, better of two orientations for the second.

Going from B12 to B13, the binding signal rises from 9.43 ln median PBM intensity, better of two orientations to 11.2 ln median PBM intensity, better of two orientations.

Going from B14 to B15, the binding signal rises from 11.1 ln median PBM intensity, better of two orientations to 12.4 ln median PBM intensity, better of two orientations.

Compared with B16, B17 is higher in binding signal: 10.1 ln median PBM intensity, better of two orientations for the first, 11.1 ln median PBM intensity, better of two orientations for the second.

Compared with B18, B19 is lower in binding signal: 12 ln median PBM intensity, better of two orientations for the first, 9.72 ln median PBM intensity, better of two orientations for the second.

First: B20
Second: B21
The binding signal of the first is higher: 12 ln median PBM intensity, better of two orientations for the first, 10.4 ln median PBM intensity, better of two orientations for the second.

First: B22
Second: B23
The binding signal of the first is lower: 10.7 ln median PBM intensity, better of two orientations for the first, 12.1 ln median PBM intensity, better of two orientations for the second.

Compared with B24, B25 is higher in binding signal: 12 ln median PBM intensity, better of two orientations for the first, 12.1 ln median PBM intensity, better of two orientations for the second.

Compared with B26, B27 is lower in binding signal: 12 ln median PBM intensity, better of two orientations for the first, 9.38 ln median PBM intensity, better of two orientations for the second.

Going from B28 to B29, the binding signal falls from 11.2 ln median PBM intensity, better of two orientations to 9.55 ln median PBM intensity, better of two orientations.

Source: paper PMC11417369, “DNA sequence and chromatin differentiate sequence-specific transcription factor binding in the human malaria parasite Plasmodium falciparum”
